Laboratory results: article PMC13215203
Positions count from the first letter of the chain named. Numbers in names are those of the source.

Target: reconstituted C. elegans γ-tubulin complex (γTuC): γ-tubulin^TBG-1, GCP2^GIP-2-5Myc, GCP3^GIP-1 and MZT-1, P34475;G5EF84
Sequence (chain, as listed by the source, chain 1 of 4): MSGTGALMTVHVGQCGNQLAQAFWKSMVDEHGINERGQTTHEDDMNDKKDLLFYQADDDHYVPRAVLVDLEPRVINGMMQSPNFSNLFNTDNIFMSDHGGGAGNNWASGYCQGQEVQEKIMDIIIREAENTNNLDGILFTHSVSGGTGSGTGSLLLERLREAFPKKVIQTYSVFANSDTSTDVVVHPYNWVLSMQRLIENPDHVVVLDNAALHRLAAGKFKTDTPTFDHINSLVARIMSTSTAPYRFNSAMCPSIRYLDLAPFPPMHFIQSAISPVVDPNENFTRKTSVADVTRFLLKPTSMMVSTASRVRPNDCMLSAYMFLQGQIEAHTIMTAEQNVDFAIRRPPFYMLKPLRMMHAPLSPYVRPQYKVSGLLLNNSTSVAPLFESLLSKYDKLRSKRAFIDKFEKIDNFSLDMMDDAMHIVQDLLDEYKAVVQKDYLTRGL
Sequence (chain, as listed by the source, chain 2 of 4): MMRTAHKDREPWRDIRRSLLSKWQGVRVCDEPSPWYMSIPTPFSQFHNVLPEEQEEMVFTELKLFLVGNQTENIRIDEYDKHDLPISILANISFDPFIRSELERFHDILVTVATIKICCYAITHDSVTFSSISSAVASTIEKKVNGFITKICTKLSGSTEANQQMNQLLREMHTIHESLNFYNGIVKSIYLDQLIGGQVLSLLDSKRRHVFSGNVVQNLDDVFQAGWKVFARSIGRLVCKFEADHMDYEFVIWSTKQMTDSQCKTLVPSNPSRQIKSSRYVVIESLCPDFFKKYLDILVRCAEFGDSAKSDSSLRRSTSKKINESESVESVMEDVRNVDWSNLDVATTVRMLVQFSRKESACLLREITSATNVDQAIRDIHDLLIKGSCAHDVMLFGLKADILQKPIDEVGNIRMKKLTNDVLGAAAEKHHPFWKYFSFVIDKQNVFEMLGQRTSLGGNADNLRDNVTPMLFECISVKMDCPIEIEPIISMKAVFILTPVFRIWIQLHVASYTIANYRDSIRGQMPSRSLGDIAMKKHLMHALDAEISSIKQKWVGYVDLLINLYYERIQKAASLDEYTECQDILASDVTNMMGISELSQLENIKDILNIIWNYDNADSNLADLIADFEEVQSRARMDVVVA
Sequence (chain, as listed by the source, chain 3 of 4): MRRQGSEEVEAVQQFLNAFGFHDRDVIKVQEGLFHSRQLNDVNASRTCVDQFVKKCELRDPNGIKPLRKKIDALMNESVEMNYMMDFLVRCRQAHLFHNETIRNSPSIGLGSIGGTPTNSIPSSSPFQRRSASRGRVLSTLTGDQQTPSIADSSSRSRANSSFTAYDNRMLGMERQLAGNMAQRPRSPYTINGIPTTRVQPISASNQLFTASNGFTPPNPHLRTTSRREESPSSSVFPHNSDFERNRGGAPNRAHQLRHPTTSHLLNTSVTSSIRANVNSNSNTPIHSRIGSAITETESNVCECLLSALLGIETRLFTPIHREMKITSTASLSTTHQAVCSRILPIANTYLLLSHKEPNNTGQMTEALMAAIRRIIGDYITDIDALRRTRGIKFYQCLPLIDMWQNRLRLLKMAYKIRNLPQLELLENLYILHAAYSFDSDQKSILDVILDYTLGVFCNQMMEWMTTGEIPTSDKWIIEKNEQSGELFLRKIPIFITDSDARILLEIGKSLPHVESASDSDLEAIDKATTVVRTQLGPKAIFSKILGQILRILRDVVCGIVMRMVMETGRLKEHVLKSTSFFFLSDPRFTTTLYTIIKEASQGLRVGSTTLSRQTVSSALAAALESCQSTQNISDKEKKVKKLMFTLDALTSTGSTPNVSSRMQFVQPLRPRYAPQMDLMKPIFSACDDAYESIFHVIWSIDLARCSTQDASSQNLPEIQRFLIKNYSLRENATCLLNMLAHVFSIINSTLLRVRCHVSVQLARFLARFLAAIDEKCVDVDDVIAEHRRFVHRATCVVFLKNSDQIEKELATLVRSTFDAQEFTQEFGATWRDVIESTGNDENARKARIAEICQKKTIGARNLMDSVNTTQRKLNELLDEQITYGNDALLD
Sequence (chain, as listed by the source, chain 4 of 4): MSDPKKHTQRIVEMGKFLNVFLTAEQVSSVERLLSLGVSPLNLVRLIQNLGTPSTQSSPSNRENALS
Assay: γTuC pull-down (γTuC-coated Myc beads), anti-SPD-5 immunoblot band intensity
Conditions: chain shown with the change, binding 2 hours at 4°C, SPD-5 fragment 75 nM, scale: band intensity relative to SPD-5 135-473 without PLK1
[1] = +PLK1 preincubation (500 nM PLK1(T194D), 2.0 μM fragment, 1 hour at 23°C)

B1: untagged SPD-5 amino acids 135-473, phosphorylated by PLK1, P91349 S170A; T178A; T198A (protein)
chain: MQSRIETSEDNFARQMKEFEAQKHAMEERIKELELAATDANNTAVGSFRGTLDDILKKNDPDFALTSGYEERKINDLEAKLLSEIDKVAELEDHIQQLRQELDDQSARLADSENVRAQLEAATGQGILGAAGNAMVPNSTFMIGNGRESQTRDQLNYIDDLETKLADAKKENDKARQALVEYMNKCSKLEHEIRTMVKNSTFDSSSMLLGGQTSDELKIQIGKVNGELNVLRAENRELRIRCDQLTGGDGNLSISLGQSRLMAGIATNDVDSIGQGNETGGTSMRILPRESQLDDLEESKLPLMDTSSAVRNQQQFASMWEDFESVKDSLQNNHNDTLE
B1 was tested. Which response [1] did it give?
Its response is 0.1.

B2: untagged SPD-5 amino acids 135-473, phosphorylated by PLK1, P91349 S170A; T178A; T198A; T274A; T335A; S339A; S340A (protein)
chain: B1 chain with T140A, T201A, S205A, S206A
How did the response [1] turn out when B2 was run?
The response was 0.

B3: untagged SPD-5 amino acids 135-473, not phosphorylated, P91349 T274A; T335A; S339A; S340A (protein)
chain: B1 chain with A36S, A44T, A64T, T140A, T201A, S205A, S206A
With B3 as the binder, how does the response (no PLK1) read?
The response was 0.1.

B4: untagged SPD-5 amino acids 135-473, phosphorylated by PLK1, P91349 T274A; T335A; S339A; S340A (protein)
chain: B1 chain with A36S, A44T, A64T, T140A, T201A, S205A, S206A
Which response [1] does the source give for B4 here?
Its response is 2.8.

B5: untagged SPD-5 amino acids 135-473, not phosphorylated, P91349 S170A; T178A; T198A (protein)
chain: B1 chain
With B5 as the binder, how does the response (no PLK1) read?
The response was 0.7.

B6: untagged SPD-5 amino acids 135-473, not phosphorylated, P91349 S170A; T178A; T198A; T274A; T335A; S339A; S340A (protein)
chain: B1 chain with T140A, T201A, S205A, S206A
How did the response (no PLK1) turn out when B6 was run?
The response was 0.1.
